Measurements as given in US6582902B1, “Method for deriving epitopes” (priority 1992, dated 2003).

Test system: anti-g10 serum
Assay: Immunoprecipitation of [32P]-labeled in vitro transcribed RNA with anti-g10 serum
Type: binding, rabbit
Conditions: FIG. 4; compared with protein A Sepharose beads alone and pre-immune serum
Experimental: Various antisera were used to precipitate either [32P] labeled in vitro transcribed D10 RNA or control transcripts. Bound RNA was analyzed on a denaturing 6% polyacrylamide gel by autoradiography. Lanes 1-4 are precipitations of D10 RNA with the following antisera: 1, anti-g10 serum; 2, preimmune serum; 3, no antibody; 4, anti-g10 serum. Other transcripts were precipitated with the anti-g10 serum as follows: 5, a control RNA identical to the D10 epitope but with loop sequence 5′-CACCAUAUAA-3′(SEQ ID NO:5); 6, an unrelated RNA; 7, an RNA containing the loop sequence 5′-CUGACCCCGU-3′(SEQ ID NO:6); 8-11, supernatants from the immunoprecipitations shown in lanes 4-7, diluted to approximate radioactive equivalents.
In vitro transcribed [^32P] radiolabeled RNA was immunoprecipitated with anti-g10 serum or with an anti-U1 RNA serum (EW). Bound RNA was analyzed using a denaturing 6% acrylamide gel and autoradiography: Panel A: The D10 DNA construct (FIG. 2) was cloned into the BamHI site of PGEM-3zf (+) to produce tagged vector RNA, and transcripts with different 3′termini were generated with SP6 RNA polymerase. […] For unexplained reasons, a small amount of endogenous U1 RNA was detected in the presence of total HeLa cell extract (lanes 12-14). […]

B1: D10 RNA: single RNA species selected from the degenerate pool by anti-g10 serum (SEQ ID NO:3); U1 stem II with loop UGGUGGAGCA (nucleic acid)
chain: GGGCCACCAACGACAUUGGGCGAGGCUUAUCCUGGUGGAGCAGGAUGUGCUGACCCCGUUGAUAUAAAUAGUGCCCAUGGAUC
modifications: chemistry not given here
notes: U1 stem II with loop UGGUGGAGCA
binding / recognition of RNA by anti-g10 serum: bound only to the anti-g10 serum
